Assay [1] has as its target recombinant PD-L1 extracellur domain protein (UniProt Q9NZQ7). The assay is described as follows: ELISA on recombinant PD-L1 extracellular domain protein.
For assay [2], the target named is recombinant CD47 extracellur domain protein (UniProt Q08722). The assay is described as follows: ELISA on recombinant CD47 extracellular domain protein. For orientation: ELISA stands for enzyme-linked immunosorbent assay.

A value given as a limit tells only on which side of the number the result lay.

Sequence of recombinant PD-L1 extracellur domain protein (Q9NZQ7 19-238 limits assumed): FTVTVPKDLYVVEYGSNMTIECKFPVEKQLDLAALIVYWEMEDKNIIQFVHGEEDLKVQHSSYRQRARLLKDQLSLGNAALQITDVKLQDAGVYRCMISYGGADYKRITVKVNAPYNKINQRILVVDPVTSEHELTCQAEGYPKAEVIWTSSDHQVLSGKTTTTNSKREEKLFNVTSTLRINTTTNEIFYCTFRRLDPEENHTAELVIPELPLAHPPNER
Sequence of recombinant CD47 extracellur domain protein (Q08722 19-139 limits assumed): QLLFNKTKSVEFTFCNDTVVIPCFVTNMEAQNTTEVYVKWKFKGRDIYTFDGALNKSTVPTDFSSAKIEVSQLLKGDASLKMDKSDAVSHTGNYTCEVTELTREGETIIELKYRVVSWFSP

Broadly, the EC50 is the concentration needed to bring the measured effect to its halfway point. On to “HAC, high affinity PD-1 mutant (positive control)”, for which, in assay [1], the EC50 is under 0.1 nM.
For “S007 (binding domain of human SIRPa, Gene 007, on human kappa light chain, co-expressed with an empty IgG1 heavy chain) (from UniProt P01834 1-107; P01857 1-330)”, the EC50 in assay [2] was over 100 nM.
As for “CV1, high affinity SIRPa mutant (positive control)”, the EC50 in assay [2] is under 0.1 nM.
For the substance “S012 (binding domain of human SIRPa, Gene 012, on human kappa light chain, co-expressed with an empty IgG1 heavy chain) (from UniProt P01834 1-107; P01857 1-330)”, in assay [2], the EC50 was over 100 nM.
As for “P050 (IgV domain of PD-1, lower affinity L128R mutant, Gene 050, on kappa chain, co-expressed with an empty IgG1 heavy chain) (from UniProt P01857 1-330)”, the EC50 in assay [1] is over 100 nM.
On to “P048 (IgV domain of PD-1, Gene 048, on kappa chain, co-expressed with an empty IgG1 heavy chain) (from UniProt P01857 1-330)”, for which the EC50 in assay [1] was over 100 nM.

The values are drawn from US20210332135A1.
